Measured values taken from patent US20260049160A1 (Hoffmann-La Roche, published 2026).

Legend:
[1] = biological target: T1, biotinylated Tim3-ECD-AviHis (human, UniProt Q8TDQ0 22-202, biotinylated (Avi tag)); experiment: ELISA on biotinylated Tim3-ECD-AviHis
T1 construct: extracellular domain; also called huTIM3; hu Tim3; not shown: Avi and His tags

[2] = biological target: T2, biotinylated PD1-ECD-AviHis (human, UniProt Q15116 25-170, biotinylated (Avi tag)); experiment: ELISA, biotinylated PD1-ECD-AviHis on streptavidin plates
T2 construct: extracellular domain; also called huPD1; hu PD1; not shown: Avi and His tags

B1: Chimeric PD1-0103 (antibody, V domains shown)
VH: EVILVESGGGLVKPGGSLKLSCAASGFSFSSYTMSWVRQTPEKRLDWVATISGGGRDIYYPDSVKGRFTISRDNAKNTLYLEMSSLMSEDTALYYCVLLTGRVYFALDSWGQGTSVTVSS
VL: KIVLTQSPASLPVSLGQRATISCRASESVDTSDNSFIHWYQQRPGQSPKLLIYRSSTLESGVPARFSGSGSRTDFTLTIDPVEADDVATYYCQQNYDVPWTFGGGTKLEIK
notes: Bivalent IgG; also called PD1 IgG (bivalent); copies: 2 + 2
binding result [1]: no binding | EC50 [2]: 0.12 nM
